From patent publication US20210340217A1, “NOVEL PEPTIDES AND COMBINATION OF PEPTIDES FOR USE IN IMMUNOTHERAPY AGAINST OVARIAN CANCER AND OTHER CANCERS” (Immatics Biotechnologies GmbH, priority 2017, published 2021) come the findings set out here.

The target in one test is HLA-A*24:02 (Homo sapiens, UniProt P04439, D101N/D140Y/D185E/E176V/E190D/F33S/G103R/G107R/I119L/I121M/I306V/K335N/L105A/L180Q/L300P/N151K/N90K/Q86E/Q94H/R106L/R138H/R89G/T104I/T345S/V100E/W191G/Y123F). Put plainly: MHC binding assay (UV-ligand exchange, beta2m ELISA). Conditions: peptide exchange yield. The method, boiled down: (§1)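 Peptide–MHC complexes formed by UV-induced exchange of a UV-cleavable peptide for the test peptide. Exchange yield measured by streptavidin-capture ELISA detecting β2m (HRP anti-β2m, TMB, A450) on 100-fold diluted samples. Quantified against refolded HLA-A*02:01/MLA-001 standards (15-500 ng/ml).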

The test system of a further test is CD8+ T cells. As to the kind of experiment: In vitro immunogenicity for MHC class I presented peptides (in vitro priming of CD8+ T cells with aAPCs, pMHC multimer readout). Type of test: cell-based, human. The method, then:
In order to obtain information regarding the immunogenicity of the TUMAPs of the present invention, the inventors performed investigations using an in vitro T-cell priming assay based on repeated stimulations of CD8+ T cells with artificial antigen presenting cells (aAPCs) loaded with peptide/MHC complexes and anti-CD28 antibody. […]
Generation of pMHC/anti-CD28 coated beads, T-cell stimulations and readout was performed in a highly defined in vitro system using four different pMHC molecules per stimulation condition and 8 different pMHC molecules per readout condition. […]
800.000 beads/200 μl were coated in 96-well plates in the presence of 4×12.5 ng different biotin-pMHC, washed and 600 ng biotin anti-CD28 were added subsequently in a volume of 200 μl. […] For the pMHC multimer readout using 8 different pMHC molecules per condition, a two-dimensional combinatorial coding approach was used as previously described (Andersen et al., 2012) with minor modifications encompassing coupling to 5 different fluorochromes. […] Peptide specific cells were calculated as percentage of total CD8+ cells. […] In vitro priming of specific multimer+ CD8+ lymphocytes was detected by comparing to negative control stimulations.

The target in a further test is HLA-A*01:01 (Homo sapiens, UniProt P04439, A114D/A174V/A182V/D101N/D185E/E176A/E190D/L180R/Q94H/R68K/S129P/T187R/V100A/V91M/W191G). As to the kind of experiment: MHC binding assay (UV-ligand exchange, beta2m ELISA). Conditions: peptide exchange yield. In short, it runs like this:
as §1
(In general: An ELISA detects its analyte on a solid surface through an enzyme-linked reagent.)

The next test concerns the target HLA-A*02:01 (Homo sapiens, UniProt P04439, D140Y/D185E/D98H/E176V/E277Q/G131W/G231S/I119V/I121R/I166T/I218V/L300P/L318F/N151K/N90K/P208A/P217A/Q86G/Q94H/R138H/R169H/T345S). Described as above. Conditions: peptide exchange yield. In short, it runs like this:
as §1

For “81 (VYNHTTRPL; listed as Homo sapiens) [compound 81]”, the Peptide exchange result with HLA-A*24:02 is given as “++++ (>75% = ++++)”.

For the substance “774 (VYVDDIYVI; listed as Homo sapiens) [compound 774]”, the “Wells positive [%]” value in the test with CD8+ T cells is on record as “+++ (50%-69% = +++)”.

Take “289 (RWEKTDLTY; listed as Homo sapiens) [compound 289]”: the Peptide exchange result with HLA-A*01:01 is given as “++ (>20% = ++)”.

In the case of “113 (QLDSNRLTY; listed as Homo sapiens) [compound 113]”, the Peptide exchange entry with HLA-A*01:01 is “+++ (>50 = +++)”.

Take “292 (NVTMKVVSVLY; listed as Homo sapiens) [compound 292]”: the Peptide exchange entry with HLA-A*01:01 is “+++ (>50 = +++)”.

Consider “290 (DMDEEIEAEY; listed as Homo sapiens) [compound 290]”, for which the Peptide exchange entry with HLA-A*01:01 is recorded as “++ (>20% = ++)”.

For “12 (KYEKIFEML; listed as Homo sapiens) [compound 12]”, the Peptide exchange result in the test with HLA-A*24:02 is “++++ (>75% = ++++)”.

As to “112 (TVTGAEQIQY; listed as Homo sapiens) [compound 112]”, the Peptide exchange result in the test with HLA-A*01:01 is recorded as “++ (>20% = ++)”.

As to “15 (VYHDDKQPTF; listed as Homo sapiens) [compound 15]”, the Peptide exchange result with HLA-A*24:02 is “++++ (>75% = ++++)”.

Turning to “13 (VYTFLSSTL; listed as Homo sapiens) [compound 13]”, the Peptide exchange entry with HLA-A*24:02 is recorded as “++++ (>75% = ++++)”.

As to “249 (VYTPTLGTL; listed as Homo sapiens) [compound 249]”, the Peptide exchange result in the test with HLA-A*24:02 is “++++ (>75% = ++++)”.

Turning to “773 (ALYGKLLKL; listed as Homo sapiens) [compound 773]”, the “Wells positive [%]” value in the test on CD8+ T cells is “+++ (50%-69% = +++)”.

As to “11 (SYSDLHYGF; listed as Homo sapiens) [compound 11]”, the Peptide exchange entry with HLA-A*24:02 is on record as “++++ (>75% = ++++)”.

On to “255 (VFVSFSSLF; listed as Homo sapiens) [compound 255]”, for which the Peptide exchange result in the test with HLA-A*24:02 is “+++ (>50 = +++)”.

As for “19 (KYVKVFHQF; listed as Homo sapiens) [compound 19]”, the Peptide exchange result with HLA-A*24:02 is “++++ (>75% = ++++)”.

As to “17 (RFTTMLSTF; listed as Homo sapiens) [compound 17]”, the Peptide exchange result with HLA-A*24:02 is on record as “++++ (>75% = ++++)”.

As for “82 (SYFRGFTLI; listed as Homo sapiens) [compound 82]”, in the test with HLA-A*24:02, the Peptide exchange entry was “++++ (>75% = ++++)”.

On to “79 (SYNEHWNYL; listed as Homo sapiens) [compound 79]”, for which, in the test with HLA-A*24:02, the Peptide exchange result is “++++ (>75% = ++++)”.

As for “291 (ETIRSVGYY; listed as Homo sapiens) [compound 291]”, the Peptide exchange entry with HLA-A*01:01 was “+++ (>50 = +++)”.

Turning to “76 (KYVAELSLL; listed as Homo sapiens) [compound 76]”, the Peptide exchange result with HLA-A*24:02 is listed as “++++ (>75% = ++++)”.

For the substance “115 (FVDNQYWRY; listed as Homo sapiens) [compound 115]”, the Peptide exchange entry with HLA-A*01:01 is given as “+++ (>50 = +++)”.

For the substance “288 (SPVTSVHGGTY; listed as Homo sapiens) [compound 288]”, in the test with HLA-A*01:01, the Peptide exchange entry is recorded as “++ (>20% = ++)”.

“10 (RYSDSVGRVSF; listed as Homo sapiens) [compound 10]”: in the test with HLA-A*24:02, the Peptide exchange entry was “++++ (>75% = ++++)”.

In the case of “31 (LLDEGAMLLY; listed as Homo sapiens) [compound 31]”, the Peptide exchange entry with HLA-A*01:01 was “++++ (>75% = ++++)”.

On to “221 (SLLDLYQL; listed as Homo sapiens) [compound 221]”, for which the Peptide exchange result with HLA-A*02:01 is on record as “++ (>20% = ++)”.

With “63 (MMEEMIFNL; listed as Homo sapiens) [compound 63]”, in the test with HLA-A*02:01, the Peptide exchange result is reported as “++++ (>75% = ++++)”.

For “252 (LYQPRASEM; listed as Homo sapiens) [compound 252]”, in the test with HLA-A*24:02, the Peptide exchange entry was “+++ (>50 = +++)”.

As to “232 (TISSLTHEL; listed as Homo sapiens) [compound 232]”, the Peptide exchange result in the test with HLA-A*02:01 is “++++ (>75% = ++++)”.

For the substance “236 (SAIPFSMTL; listed as Homo sapiens) [compound 236]”, the Peptide exchange entry in the test with HLA-A*02:01 is on record as “+++ (>50 = +++)”.

As for “116 (VLLDEGAMLLY; listed as Homo sapiens) [compound 116]”, in the test with HLA-A*01:01, the Peptide exchange result is reported as “++ (>20% = ++)”.

Consider “224 (SLPRFQVTL; listed as Homo sapiens) [compound 224]”, for which the Peptide exchange entry with HLA-A*02:01 is reported as “++++ (>75% = ++++)”.

In the case of “243 (YASEGVKQV; listed as Homo sapiens) [compound 243]”, the Peptide exchange entry in the test with HLA-A*02:01 is given as “+++ (>50 = +++)”.

In the case of “68 (KLFDTQQFL; listed as Homo sapiens) [compound 68]”, the Peptide exchange result with HLA-A*02:01 is “++++ (>75% = ++++)”.

Take “18 (KYPVHIYRL; listed as Homo sapiens) [compound 18]”: in the test with HLA-A*24:02, the Peptide exchange entry was “++++ (>75% = ++++)”.

With “78 (SFAPRSAVF; listed as Homo sapiens) [compound 78]”, the Peptide exchange entry in the test with HLA-A*24:02 is “++++ (>75% = ++++)”.

On to “231 (SVTESTHHL; listed as Homo sapiens) [compound 231]”, for which, in the test with HLA-A*02:01, the Peptide exchange entry is reported as “+++ (>50 = +++)”.

In the case of “242 (STIPALHEI; listed as Homo sapiens) [compound 242]”, the Peptide exchange result with HLA-A*02:01 is listed as “+++ (>50 = +++)”.

On to “2 (TLLKALLEI; listed as Homo sapiens) [compound 2]”, for which the Peptide exchange entry with HLA-A*02:01 is recorded as “++++ (>75% = ++++)”.

As for “75 (KVVSVLYNV; listed as Homo sapiens) [compound 75]”, in the test with HLA-A*02:01, the Peptide exchange entry is given as “++++ (>75% = ++++)”.

Regarding “77 (RYGPVFTV; listed as Homo sapiens) [compound 77]”, the Peptide exchange result with HLA-A*24:02 is recorded as “++++ (>75% = ++++)”.

Consider “114 (VMEQSAGIMY; listed as Homo sapiens) [compound 114]”, for which the Peptide exchange entry with HLA-A*01:01 is given as “++ (>20% = ++)”.

“80 (TAYMVSVAAF; listed as Homo sapiens) [compound 80]”: in the test with HLA-A*24:02, the Peptide exchange result is “+++ (>50 = +++)”.

“6 (SLGKHTVAL; listed as Homo sapiens) [compound 6]”: in the test with HLA-A*02:01, the Peptide exchange result is recorded as “+++ (>50 = +++)”.

Turning to “234 (GVATRVDAI; listed as Homo sapiens) [compound 234]”, the Peptide exchange result in the test with HLA-A*02:01 is “++ (>20% = ++)”.

As to “16 (IYSPQFSRL; listed as Homo sapiens) [compound 16]”, the Peptide exchange result with HLA-A*24:02 is given as “++++ (>75% = ++++)”.

In the case of “225 (SVFAHPRKL; listed as Homo sapiens) [compound 225]”, the Peptide exchange entry in the test with HLA-A*02:01 is “+++ (>50 = +++)”.

In the case of “246 (RYLAVVHAVF; listed as Homo sapiens) [compound 246]”, the Peptide exchange entry with HLA-A*24:02 was “++++ (>75% = ++++)”.

Consider “241 (RQPNILVHL; listed as Homo sapiens) [compound 241]”, for which the Peptide exchange entry in the test with HLA-A*02:01 was “++ (>20% = ++)”.

Regarding “66 (GLLQELSSI; listed as Homo sapiens) [compound 66]”, the Peptide exchange entry with HLA-A*02:01 was “++++ (>75% = ++++)”.

“14 (FYFPTPTVL; listed as Homo sapiens) [compound 14]”: the Peptide exchange entry with HLA-A*24:02 is reported as “++++ (>75% = ++++)”.

“8 (YLVTKVVAV; listed as Homo sapiens) [compound 8]”: the Peptide exchange entry with HLA-A*02:01 was “++++ (>75% = ++++)”.

Consider “69 (TTYEGSITV; listed as Homo sapiens) [compound 69]”, for which the Peptide exchange entry with HLA-A*02:01 was “++++ (>75% = ++++)”.
